Data from patent US20220098328A1, “ANTIBODIES TO M(H)DM2/4 AND THEIR USE IN DIAGNOSING AND TREATING CANCER” (NomoCan Pharmaceuticals LLC, priority 2017, published 2022).
Substitutions are numbered along the chain they refer to. Entries after “also recorded” stand apart in the source; their conditions may differ.

B1: NMC-204: mouse monoclonal antibody of the IgG3 isotype that binds to NMC-P2 (SEQ ID NO:2); VH SEQ ID NO:38, VL SEQ ID NO:39 (antibody, V domains shown)
VH: EVQLQESGSVLVRPGASVKLSCKASGDTLSGSWMHWAMQRPGQGLEWIGEIHLNRGTTNYNEKFKGKATVTVDTSSSTAYVDLSSLTSEDSAVYYCARSPGFAYWGQGTLVTVSA
VL: GIVMTQAAPSVPVTPGESVSISCRSSKSLLHSNGNSYLYWFLQRPGQSPQLLIYRMSNLASGVPDRFSGSGSGTAFTLRITRVEAEDVGVYYCMQHLEYPFTFGSGTKLEIK
modifications: mAb NMC-204 Heavy Chain Variable Region; mAb NMC-204 Light Chain Variable Region
B2: NMC-103: mouse monoclonal antibody of the IgG1 isotype that binds to NMC-P1 (SEQ ID NO:1); VH SEQ ID NO:36, VL SEQ ID NO:37 (antibody, V domains shown)
VH: EVQLQESGGGLVQPGGSLRLSCTTSGFTFTHYYMSWVRQPPGKALEWLGFIRNKAKGYTAEYSASVKGRFTISRDNSQSILYLQMNTLRPEDSATYYCARDIGDNWGQGTLVTVSS
VL: DIVMTQAAFSNPVTLGTSASISCRSSKNLLHSNGITYLYWYLQRPGQSPQLLISRVSNLASGVPNRFSGSESGTDFTLRISRVEAEDVGVYFCAQLLELPYTFGGGTKLEIK
modifications: mAb NMC-103 Heavy Chain Variable Region; mAb NMC-103 Light Chain Variable Region
B3: NMC-H103 (VH4/VK3): humanized NMC-103 variant, human IgG1, VH4 (SEQ ID NO:299) and VK3 (SEQ ID NO:297) (antibody, V domains shown)
VH: B2 VH with Q5V, G16P, P40A, A44G, Q78K, I80T, T87S, P90A, S93T, T95V
VL: B2 VL with A7T, A8P, F9L, N11S, T17Q, S18P, R44K, N65D, R79K, L109V
modifications: human IgG1 constant regions lacking entries; mAb NMC-H103.VH4Heavy Chain Variable Region; mAb NMC-H103.VK3Light Chain Variable Region

What was measured:
Assay in all cases: Cell-ELISA on intact cells
Format in all cases: cell-based
[1] = system: mouse pancreatic Panc02 cells; conditions: for relative binding (reactivity) to intact cells, cell-ELISA: Panc02, mAb 1 μg/mL, fixed, non-permeabilized cells
Method: (§1) Cell-ELISA Methodology: 8,000-10,000 cells/well of a 96-well microplate were grown overnight. The next day, unbound cells were washed off with sterile 1×PBS. The cells in each well were fixed with freshly prepared 4% buffered paraformaldehyde (pH 7.2) for 1 hour followed by 3 washes with 1×PBS. The wells were then blocked with 5% BSA in PBS (100 μl/well) for 2 hours at room temperature. Microplate wells were then washed 5 times with 300 μl of ice cold 1×PBS. MAbs NMC-103, NMC-204 or NMC-303 at 1 μg/mL in 1% BSA/PBS were then incubated with various cancer or normal untransformed cells for 2 hours at room temperature. Wells were then washed with 300 μl of ice-cold 1×PBS for 5 times and corresponding secondary antibody HRP-GaM F(ab′)2 diluted 1:2500 or 1:5000 in PBS with 1% BSA were added at 100 μl/well for 1 hour at room temperature followed by washing 5 times with 300 μl of ice-cold 1×PBS. TMB Substrate Solution (1-Step™ Ultra TMB-ELISA, ThermoFisher, Cat. No. 34028) was then added at 50 μL to each microplate well and incubated at room temperature for 30 minutes. The reaction was stopped by addition of 50 μL of stop solution (ThermoFisher, Cat. No. SS04) to each well and absorbance of each well was measured at OD450 nm. The absorbance value of each experimental well was corrected for the absorbance value obtained from wells treated with isotype-identical mAbs included in each experiment. The results are thus expressed as “relative binding”.
(§2) In a 96-well microplate, 15,000 cells/well were cultured overnight. The next day, unbound cells were washed off with sterile 1×PBS. The cells in each well were fixed with freshly prepared 4% buffered paraformaldehyde (pH 7.2) for 1 hour, followed by 3 washes with 1×PBS. The wells were then blocked with 5% BSA in PBS (100 μl/well) for 2 hours at room temperature. Microplate wells were then washed 5 times with 300 μl of ice cold 1×PBS. Monoclonal antibodies NMC-H103 (VH4/VK3) or NMC-C303 at 5 μg/mL in 1% BSA/PBS were then incubated with various cancer cells for 2 hours at room temperature. Wells were then washed with 300 μl of ice-cold 1×PBS for 5 times and corresponding secondary antibody HRP-GaH F(ab′)2 diluted 1:2000 or 1:4000 in PBS with 1% BSA were added at 100 μl/well for 1 hour at room temperature followed by washing 5 times with 300 μl of ice-cold 1×PBS. TMB Substrate Solution (1-Step™ Ultra TMB-ELISA, ThermoFisher, Cat. No. 34028) was then added at 50 μL to each microplate well and incubated at room temperature for 30 minutes. The reaction was stopped by addition of 50 μL of stop solution (ThermoFisher, Cat. No. SS04) to each well and absorbance of each well was measured at OD450 nm. The absorbance value of each experimental well was corrected for the absorbance value obtained from wells treated with isotype-identical mAbs included in each experiment.

[2] = system: primary patient-derived human ovarian cancer OVCA4 cells; conditions: for relative binding (reactivity) to intact cells, cell-ELISA: OVCA4, mAb 1 μg/mL, fixed, non-permeabilized cells
Method: as §1, §2

[3] = system: human ovarian cancer OVCAR-3 cells; conditions: for relative binding (reactivity) to intact cells, cell-ELISA: OVCAR-3 (resistant to adriamycin, melphalan, cisplatin), mAb 1 μg/mL, fixed, non-permeabilized cells
Method: as §1, §2

[4] = system: mouse Lewis Lung LL/2 cells; conditions: for relative binding (reactivity) to intact cells, cell-ELISA: LL/2, mAb 1 μg/mL, fixed, non-permeabilized cells
Method: as §1, §2

[5] = system: human melanoma A2058 cells; conditions: for relative binding (reactivity) to intact cells, cell-ELISA: A2058, mAb 1 μg/mL, fixed, non-permeabilized cells
Method: as §1, §2

[6] = system: mouse colon cancer MC-38 cells; conditions: for relative binding (reactivity) to intact cells, cell-ELISA: MC-38, mAb 1 μg/mL, fixed, non-permeabilized cells
Method: as §1, §2

[7] = system: human pancreatic cancer MIA PaCa-2 cells; conditions: for binding to intact, EDTA-released MiaPaCa-2 cells, cell-ELISA: EDTA 10 mmols, pH 7.2, 5 min, 37° C.; for relative binding (reactivity) to intact cells, cell-ELISA: MIA PaCa-2, mAb 1 μg/mL, fixed, non-permeabilized cells; for binding to intact MIA PaCa-2 cells when competed with NMC-P2 peptide / binding to intact MIA PaCa-2 cells when competed with soluble NMC-P1 peptide: cell-ELISA peptide competition
Method: as §1, §2

[8] = system: human breast cancer MCF-7 cells; conditions: for relative binding (reactivity) to intact cells, cell-ELISA: MCF-7, mAb 1 μg/mL, fixed, non-permeabilized cells
Method: as §1, §2

Molecule | relative binding (reactivity) to intact cells, cell-ELISA [1] | relative binding (reactivity) to intact cells, cell-ELISA [2] | relative binding (reactivity) to intact cells, cell-ELISA [3] | relative binding (reactivity) to intact cells, cell-ELISA [4] | relative binding (reactivity) to intact cells, cell-ELISA [5] | relative binding (reactivity) to intact cells, cell-ELISA [6] | binding to intact, EDTA-released MiaPaCa-2 cells, cell-ELISA [7] | relative binding (reactivity) to intact cells, cell-ELISA [7] | binding to intact MIA PaCa-2 cells when competed with NMC-P2 peptide [7] | binding to intact MIA PaCa-2 cells when competed with soluble NMC-P1 peptide [7] | relative binding (reactivity) to intact cells, cell-ELISA [8] | binding to intact MIA PaCa-2 cells after pre-incubation with full-length recombinant HDM2 ([7]; cell-ELISA competition) | binding to intact, un-permeabilized cells, cell-based ELISA ([1]; Panc-2 pancreatic cancer cells, mAb 5 μg/mL) | binding to intact, un-permeabilized cells, cell-based ELISA ([2]; OVCA-4 ovarian cancer cells, mAb 5 μg/mL) | binding to intact, un-permeabilized cells, cell-based ELISA ([3]; OVCAR-3 ovarian cancer cells, mAb 5 μg/mL) | OD reading / binding after pre-incubation of antibody with NMC-P1 ([4]; LL/2 cells, antibody 5 μg/mL, NMC-P1 at ×10 the concentration of mAbs) | binding to intact, un-permeabilized cells, cell-based ELISA ([5]; mAb 5 μg/mL) | binding to intact, un-permeabilized cells, cell-based ELISA ([6]; MC-38 colon cancer cells, mAb 5 μg/mL) | binding to intact, un-permeabilized cells, cell-based ELISA ([7]; MIAPaCa-2 pancreatic cancer cells, mAb 5 μg/mL) | binding to intact, un-permeabilized cells, cell-based ELISA ([8]; MCF-7 breast cancer cells, mAb 5 μg/mL)
B1 | reactivity | reactivity | reactivity | reactivity | reactivity | reactivity | bound | reactivity; also recorded: reacted | competed | not with NMC-P1 | reactivity |  |  |  |  |  |  |  |  | 
B2 | reactivity | reactivity | reactivity | reactivity | reactivity | reactivity | bound | reactivity | did not have any effect | completely abolished | reactivity | reduced |  |  |  |  |  |  |  | 
B3 |  |  |  |  |  |  |  |  |  |  |  |  | binding | binding | binding | 1.09 OD450 (absorbance, unitless) | binding | binding | binding | binding
